Data on one molecule can be found in publication PMC9174126.

This test deals with collagen I coupled to the Biacore CM5 chip (UniProt P02452). In words: SPR; Biacore; SPARC-WT and SPARC-Fut8KO on collagen I; responses compared at 300 s; sensorgrams shown in Fig. 2C of Ref. [20]. On the technique in general: Surface plasmon resonance follows binding to a sensor surface in real time, without labels.
UniProt P02452, sequence (P02452 23-1218, chain 1 of 2): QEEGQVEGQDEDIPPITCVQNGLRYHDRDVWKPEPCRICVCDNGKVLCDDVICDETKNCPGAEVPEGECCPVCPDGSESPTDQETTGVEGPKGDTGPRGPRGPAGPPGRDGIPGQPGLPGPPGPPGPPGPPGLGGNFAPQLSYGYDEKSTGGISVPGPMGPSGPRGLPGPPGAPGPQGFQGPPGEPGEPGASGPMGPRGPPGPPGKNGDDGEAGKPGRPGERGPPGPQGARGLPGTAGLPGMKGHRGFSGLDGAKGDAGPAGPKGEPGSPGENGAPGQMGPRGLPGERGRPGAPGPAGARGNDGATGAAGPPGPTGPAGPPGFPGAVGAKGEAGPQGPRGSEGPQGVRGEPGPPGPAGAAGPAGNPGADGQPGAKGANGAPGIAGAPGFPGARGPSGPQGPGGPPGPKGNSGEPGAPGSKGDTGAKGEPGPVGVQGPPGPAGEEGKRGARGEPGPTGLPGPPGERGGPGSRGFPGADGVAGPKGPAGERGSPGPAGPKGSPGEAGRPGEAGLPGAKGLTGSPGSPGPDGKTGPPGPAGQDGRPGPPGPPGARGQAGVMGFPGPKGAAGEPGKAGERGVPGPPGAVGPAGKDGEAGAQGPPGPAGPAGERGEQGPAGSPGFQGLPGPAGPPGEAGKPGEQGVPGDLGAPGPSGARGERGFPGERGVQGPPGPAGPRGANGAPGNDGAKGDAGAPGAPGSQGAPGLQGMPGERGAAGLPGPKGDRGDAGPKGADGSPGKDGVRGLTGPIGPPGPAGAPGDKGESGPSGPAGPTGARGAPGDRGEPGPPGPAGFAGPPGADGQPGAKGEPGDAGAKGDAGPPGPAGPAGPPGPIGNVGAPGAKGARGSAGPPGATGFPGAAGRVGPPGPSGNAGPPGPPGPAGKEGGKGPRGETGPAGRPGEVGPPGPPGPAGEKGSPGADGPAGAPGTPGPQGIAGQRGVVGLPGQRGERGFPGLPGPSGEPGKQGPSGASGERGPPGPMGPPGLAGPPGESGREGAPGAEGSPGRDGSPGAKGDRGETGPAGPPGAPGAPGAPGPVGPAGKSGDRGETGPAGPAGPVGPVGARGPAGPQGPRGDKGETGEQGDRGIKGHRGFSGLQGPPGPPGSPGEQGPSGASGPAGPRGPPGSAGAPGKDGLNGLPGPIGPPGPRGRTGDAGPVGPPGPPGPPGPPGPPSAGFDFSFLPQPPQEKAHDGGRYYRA
UniProt P02452, sequence (P08123 80-1119, chain 2 of 2, further chain): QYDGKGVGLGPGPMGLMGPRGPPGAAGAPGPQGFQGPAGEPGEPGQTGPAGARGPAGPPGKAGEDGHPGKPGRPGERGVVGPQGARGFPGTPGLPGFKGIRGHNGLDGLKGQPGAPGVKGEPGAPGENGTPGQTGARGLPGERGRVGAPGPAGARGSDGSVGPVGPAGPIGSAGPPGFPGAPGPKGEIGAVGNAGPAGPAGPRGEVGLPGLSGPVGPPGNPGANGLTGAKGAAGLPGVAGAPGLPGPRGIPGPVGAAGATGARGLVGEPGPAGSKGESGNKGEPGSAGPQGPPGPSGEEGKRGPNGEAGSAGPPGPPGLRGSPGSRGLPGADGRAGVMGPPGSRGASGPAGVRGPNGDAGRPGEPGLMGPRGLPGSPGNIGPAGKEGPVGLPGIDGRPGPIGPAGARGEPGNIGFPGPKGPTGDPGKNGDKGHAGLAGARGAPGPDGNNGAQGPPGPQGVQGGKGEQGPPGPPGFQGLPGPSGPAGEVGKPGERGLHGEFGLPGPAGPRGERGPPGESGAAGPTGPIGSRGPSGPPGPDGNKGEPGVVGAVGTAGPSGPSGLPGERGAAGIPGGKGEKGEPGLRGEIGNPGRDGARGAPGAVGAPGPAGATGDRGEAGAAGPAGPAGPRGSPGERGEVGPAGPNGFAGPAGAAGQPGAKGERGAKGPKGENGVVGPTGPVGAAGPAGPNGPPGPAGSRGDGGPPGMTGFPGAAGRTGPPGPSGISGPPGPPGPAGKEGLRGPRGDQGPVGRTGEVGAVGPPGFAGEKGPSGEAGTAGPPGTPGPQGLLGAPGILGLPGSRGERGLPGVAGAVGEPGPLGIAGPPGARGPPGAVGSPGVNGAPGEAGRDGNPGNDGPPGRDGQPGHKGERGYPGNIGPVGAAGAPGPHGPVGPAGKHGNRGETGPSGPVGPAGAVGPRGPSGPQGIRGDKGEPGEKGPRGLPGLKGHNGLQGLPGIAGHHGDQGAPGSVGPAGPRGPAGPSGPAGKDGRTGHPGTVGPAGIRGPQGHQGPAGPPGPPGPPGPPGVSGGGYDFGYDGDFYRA

B1: recombinant His-tagged human SPARC from FUT8-knockout HEK-293T cells (SPARC-Fut8KO), not core-fucosylated (natural protein)
chain: APQQEALPDETEVVEETVAEVTEVSVGANPVQVEVGEFDDGAEETEEEVVAENPCQNHHCKHGKVCELDENNTPMCVCQDPTSCPAPIGEFEKVCSNDNKTFDSSCHFFATKCTLEGTKKGHKLHLDYIGPCKYIPPCLDSELTEFPLRMRDWLKNVLVTLYERDEDNNLLTEKQKLRVKKIHENEKRLEAGDHPVELLARDFEKNYNMYIFPVHWQFGQLDQHPIDGYLSHTELAPLRAPLIPMEHCTTRFFETCDLDNDKYIALDEWAGCFGIKQKDIDKDLVI
modifications: not core-fucosylated at N116
In the case of B1, the binding response (RU) relative to SPARC-WT at 300 s stood at 40%.
